The assay addresses T1, PDK1 50–359 [Y288G,Q292A] (human, UniProt O15530 50-359, Y288G | Q292A).
T1 sequence (looked up): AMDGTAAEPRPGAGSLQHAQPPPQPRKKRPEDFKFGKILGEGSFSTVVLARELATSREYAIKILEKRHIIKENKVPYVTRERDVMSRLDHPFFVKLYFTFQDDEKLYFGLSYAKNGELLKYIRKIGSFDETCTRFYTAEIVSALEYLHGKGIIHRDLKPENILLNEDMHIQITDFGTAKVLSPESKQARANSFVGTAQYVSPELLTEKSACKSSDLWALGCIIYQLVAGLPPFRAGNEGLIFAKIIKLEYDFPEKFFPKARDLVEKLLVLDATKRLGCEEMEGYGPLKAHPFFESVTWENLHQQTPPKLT
Put plainly: HDX-MS.

REPRILSEEEQEMFRDFDYIADWC [PIFtide]: the binding result was “binds”.

The record behind these values is PMC7677135 (Biophysical Journal, 2020).
